pKd: −log10 of the molar value.
Target: Twin-Strep-tagged human exocyst Subcomplex-1 (Exoc1:Exoc2:Exoc3:Exoc4) (human) (UniProt Q9NV70)
Assay: SPR

Chain of UniProt Q9NV70 (Q9NV70 whole entry, chain 1 of 4): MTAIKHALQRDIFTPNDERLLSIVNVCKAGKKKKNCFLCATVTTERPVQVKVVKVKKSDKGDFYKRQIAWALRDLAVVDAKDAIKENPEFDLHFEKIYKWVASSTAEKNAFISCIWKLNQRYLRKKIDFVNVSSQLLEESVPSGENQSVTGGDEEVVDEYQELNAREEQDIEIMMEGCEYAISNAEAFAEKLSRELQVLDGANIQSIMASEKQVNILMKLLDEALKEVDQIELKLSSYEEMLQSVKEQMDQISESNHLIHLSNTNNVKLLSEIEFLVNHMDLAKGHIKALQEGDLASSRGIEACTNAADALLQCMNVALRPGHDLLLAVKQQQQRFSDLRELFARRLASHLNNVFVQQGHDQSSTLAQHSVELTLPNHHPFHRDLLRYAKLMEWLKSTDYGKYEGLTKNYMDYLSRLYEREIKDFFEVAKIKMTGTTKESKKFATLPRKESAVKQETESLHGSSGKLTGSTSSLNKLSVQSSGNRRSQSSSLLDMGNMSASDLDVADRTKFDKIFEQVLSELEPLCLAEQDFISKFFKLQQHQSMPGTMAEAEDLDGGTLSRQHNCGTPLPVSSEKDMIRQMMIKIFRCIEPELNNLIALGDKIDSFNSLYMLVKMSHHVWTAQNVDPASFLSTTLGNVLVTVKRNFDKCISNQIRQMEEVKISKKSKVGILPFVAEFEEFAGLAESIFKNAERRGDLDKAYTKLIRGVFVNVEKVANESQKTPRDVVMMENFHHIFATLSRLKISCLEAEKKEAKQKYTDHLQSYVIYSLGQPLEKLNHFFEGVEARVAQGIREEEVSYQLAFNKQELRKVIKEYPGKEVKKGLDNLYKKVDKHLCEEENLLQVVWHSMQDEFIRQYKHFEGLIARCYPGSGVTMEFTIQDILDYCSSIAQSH
Chain of UniProt Q9NV70 (Q96KP1 whole entry, chain 2 of 4, further chain): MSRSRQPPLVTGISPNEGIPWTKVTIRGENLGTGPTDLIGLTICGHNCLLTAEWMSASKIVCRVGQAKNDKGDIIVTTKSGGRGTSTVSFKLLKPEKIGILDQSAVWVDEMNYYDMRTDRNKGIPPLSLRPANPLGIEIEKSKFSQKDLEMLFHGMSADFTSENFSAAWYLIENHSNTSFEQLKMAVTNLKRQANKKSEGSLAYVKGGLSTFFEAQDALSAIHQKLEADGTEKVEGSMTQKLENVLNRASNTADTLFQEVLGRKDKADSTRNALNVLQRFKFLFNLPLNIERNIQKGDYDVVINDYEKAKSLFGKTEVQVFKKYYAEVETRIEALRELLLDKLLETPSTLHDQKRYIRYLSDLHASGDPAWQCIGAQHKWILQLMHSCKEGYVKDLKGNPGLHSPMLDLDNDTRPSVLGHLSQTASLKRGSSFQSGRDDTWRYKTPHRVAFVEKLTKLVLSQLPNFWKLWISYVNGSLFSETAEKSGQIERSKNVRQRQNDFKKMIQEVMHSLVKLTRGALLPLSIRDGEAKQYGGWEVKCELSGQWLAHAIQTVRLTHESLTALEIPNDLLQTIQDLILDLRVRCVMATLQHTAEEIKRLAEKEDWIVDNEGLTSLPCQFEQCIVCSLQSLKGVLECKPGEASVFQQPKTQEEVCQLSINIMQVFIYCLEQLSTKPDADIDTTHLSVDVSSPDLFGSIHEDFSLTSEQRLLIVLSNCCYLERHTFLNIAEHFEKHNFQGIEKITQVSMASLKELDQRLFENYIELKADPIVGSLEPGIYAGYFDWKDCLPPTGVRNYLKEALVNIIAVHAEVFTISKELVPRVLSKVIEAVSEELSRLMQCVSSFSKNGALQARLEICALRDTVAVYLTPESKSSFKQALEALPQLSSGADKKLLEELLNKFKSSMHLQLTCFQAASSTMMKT
Chain of UniProt Q9NV70 (O60645 whole entry, chain 3 of 4, further chain): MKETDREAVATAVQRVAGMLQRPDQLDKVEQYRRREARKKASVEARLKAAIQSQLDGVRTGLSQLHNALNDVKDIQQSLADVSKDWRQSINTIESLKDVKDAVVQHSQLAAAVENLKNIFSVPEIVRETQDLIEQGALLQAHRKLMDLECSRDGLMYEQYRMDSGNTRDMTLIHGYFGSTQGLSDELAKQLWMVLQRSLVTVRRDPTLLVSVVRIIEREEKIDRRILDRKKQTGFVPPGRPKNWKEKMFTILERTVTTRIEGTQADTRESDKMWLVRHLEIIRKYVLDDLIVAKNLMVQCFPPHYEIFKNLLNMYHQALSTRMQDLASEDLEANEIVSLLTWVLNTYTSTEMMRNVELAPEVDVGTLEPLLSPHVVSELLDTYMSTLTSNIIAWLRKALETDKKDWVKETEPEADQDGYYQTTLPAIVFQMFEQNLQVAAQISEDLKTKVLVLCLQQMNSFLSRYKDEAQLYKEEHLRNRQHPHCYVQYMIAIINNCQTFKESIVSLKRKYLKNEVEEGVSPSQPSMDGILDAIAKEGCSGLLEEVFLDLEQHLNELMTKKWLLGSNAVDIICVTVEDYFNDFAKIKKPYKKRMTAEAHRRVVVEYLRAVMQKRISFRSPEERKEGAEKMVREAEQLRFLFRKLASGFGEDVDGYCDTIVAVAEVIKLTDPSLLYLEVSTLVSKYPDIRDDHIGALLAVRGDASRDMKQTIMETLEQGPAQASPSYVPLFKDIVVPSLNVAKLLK
Chain of UniProt Q9NV70 (Q96A65 whole entry, chain 4 of 4, further chain): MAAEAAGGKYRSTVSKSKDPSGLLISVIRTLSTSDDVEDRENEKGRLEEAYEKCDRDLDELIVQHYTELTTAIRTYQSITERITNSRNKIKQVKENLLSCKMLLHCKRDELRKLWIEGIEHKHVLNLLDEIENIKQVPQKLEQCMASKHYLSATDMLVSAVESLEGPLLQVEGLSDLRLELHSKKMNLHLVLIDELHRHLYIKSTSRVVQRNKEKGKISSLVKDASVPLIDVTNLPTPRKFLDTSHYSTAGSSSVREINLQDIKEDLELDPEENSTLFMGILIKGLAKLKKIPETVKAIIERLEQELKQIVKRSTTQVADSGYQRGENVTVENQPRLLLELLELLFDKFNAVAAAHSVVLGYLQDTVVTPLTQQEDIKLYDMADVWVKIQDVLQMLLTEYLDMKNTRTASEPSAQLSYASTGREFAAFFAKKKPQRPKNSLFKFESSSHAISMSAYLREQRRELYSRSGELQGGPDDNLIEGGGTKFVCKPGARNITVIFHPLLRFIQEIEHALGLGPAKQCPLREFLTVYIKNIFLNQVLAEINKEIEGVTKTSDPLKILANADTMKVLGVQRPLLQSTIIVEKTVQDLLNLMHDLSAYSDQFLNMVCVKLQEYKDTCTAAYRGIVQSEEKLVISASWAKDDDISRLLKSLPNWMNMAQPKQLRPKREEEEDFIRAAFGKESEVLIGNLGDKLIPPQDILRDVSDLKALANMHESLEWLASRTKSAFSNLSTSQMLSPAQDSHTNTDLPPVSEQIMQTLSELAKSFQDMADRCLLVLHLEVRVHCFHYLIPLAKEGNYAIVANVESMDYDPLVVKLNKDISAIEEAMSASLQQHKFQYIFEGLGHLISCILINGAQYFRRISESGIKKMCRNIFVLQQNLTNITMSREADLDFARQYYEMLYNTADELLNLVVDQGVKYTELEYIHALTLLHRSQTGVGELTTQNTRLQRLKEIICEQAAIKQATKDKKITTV

How did the pKd turn out when “human exocyst Subcomplex-2 (Exoc5:Exoc6:Exoc7:Exoc8) (from UniProt O00471 1-708; Q8TAG9 1-804; Q9UPT5 1-735; Q8IYI6 1-725)” was run?
The pKd was 7.11.
